Test results published in US20250011363A1, “OPTIMIZED SHORTENED PEPTIDE THAT BINDS TO ACETYLCHOLINE RECEPTOR, AND USE THEREOF” (SKINMED CO., LTD., priority 2021, published 2025).

Target: acetylcholine receptor (Homo sapiens, UniProt P02708)
Assay: SPR binding affinity (RU) of optimized 5mer/6mer/7mer peptides, Examples 6-7
Conditions: SPR, peptides tested at 10 μM
Procedure: Based on the frequencies of occurrence of the top 7 amino acids from Table 7 in Example 5, 600 peptides comprising these amino acids (top combinations) and those comprising the 13 less frequently occurring amino acids (bottom combinations) were synthesized for each series of 5mer, 6mer-1, and 6mer-2. The binding affinity of each sequence for the acetylcholine receptor was measured using Surface Plasmon Resonance (SPR) analysis method. The peptides were tested at a concentration of 10 μM. Additionally, the average binding affinities of the top and bottom combinations in each series are depicted in FIGS. 5-7.
Representative peptides identified in Example 6, two in each library, including 5mers (73, 311) and 6mers-1 (43, 210) and 6mers-2 (136, 233), were compared with the pre-optimized 6mer, 5mer-ND, and Synake.

[1] = 5mer Top sequence (top combinations)

Sequence of acetylcholine receptor (P02708 21-457): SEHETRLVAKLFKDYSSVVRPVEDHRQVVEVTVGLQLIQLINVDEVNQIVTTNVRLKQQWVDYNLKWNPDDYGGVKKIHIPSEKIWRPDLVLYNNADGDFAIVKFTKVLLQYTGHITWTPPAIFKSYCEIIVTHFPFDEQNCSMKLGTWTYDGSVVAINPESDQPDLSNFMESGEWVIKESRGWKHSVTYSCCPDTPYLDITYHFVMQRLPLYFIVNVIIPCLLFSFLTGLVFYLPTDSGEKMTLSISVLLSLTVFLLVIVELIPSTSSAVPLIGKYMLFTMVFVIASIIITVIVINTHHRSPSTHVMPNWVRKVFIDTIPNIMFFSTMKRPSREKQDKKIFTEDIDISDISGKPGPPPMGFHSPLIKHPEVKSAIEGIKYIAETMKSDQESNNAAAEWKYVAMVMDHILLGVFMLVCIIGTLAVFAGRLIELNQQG

Row | Substance | Binding affinity [1] [Ru] | Binding affinity (5mer Top sequence) [Ru]
1 | 5mer-277 (RVFTR) | 82 | 
2 | 5mer-278 (RWQRR) | 66 | 
3 | 5mer-279 (RVVTK) | 56 | 
4 | 5mer-280 (KWILK) | 53 | 
5 | 5mer-281 (RGFLK) | 58 | 
6 | 5mer-282 (RVLTR) | 77 | 
7 | 5mer-283 (KWVYK) | 51 | 
8 | 5mer-284 (KQVQR) | 52 | 
9 | 5mer-285 (KGQLK) | 75 | 
10 | 5mer-286 (RWFQK) | 71 | 
11 | 5mer-287 (KRYRR) | 68 | 
12 | 5mer-288 (KLILK) | 73 | 
13 | 5mer-289 (RRQYR) | 87 | 
14 | 5mer-290 (RGYYR) | 57 | 
15 | 5mer-291 (RWFTR) | 72 | 
16 | 5mer-292 (KLVCK) | 59 | 
17 | 5mer-293 (RQYYR) | 83 | 
18 | 5mer-294 (KQYYK) | 50 | 
19 | 5mer-295 (RGRCR) | 52 | 
20 | 5mer-296 (KWISK) | 55 | 
21 | 5mer-297 (RSLRK) | 81 | 
22 | 5mer-298 (KSIYR) | 75 | 
23 | 5mer-299 (KGRRK) | 62 | 

Row | Substance | Binding affinity [1] [Ru] | Binding affinity (5mer Top sequence) [Ru]
24 | 5mer-300 (RQYRK) | 81 | 
25 | 5mer-301 (KWIRK) |  | 64
26 | 5mer-302 (RRILK) |  | 70
27 | 5mer-303 (KGRYR) |  | 87
28 | 5mer-304 (RSVRK) |  | 76
29 | 5mer-305 (KRICK) |  | 72
30 | 5mer-306 (KSYYR) |  | 74
31 | 5mer-307 (KQRCK) |  | 82
32 | 5mer-308 (RLRCR) |  | 84
33 | 5mer-309 (KVQYR) |  | 70
34 | 5mer-310 (KSRQR) |  | 78
35 | 5mer-312 (KRYCR) |  | 81
36 | 5mer-313 (RSQLK) |  | 75
37 | 5mer-314 (RWYTR) |  | 80
38 | 5mer-315 (KLFSR) |  | 77
39 | 5mer-316 (KQYLR) |  | 73
40 | 5mer-317 (RRVQR) |  | 86
41 | 5mer-318 (KRVCK) |  | 64
42 | 5mer-319 (RVQTR) |  | 74
43 | 5mer-320 (RVVQR) |  | 75
44 | 5mer-321 (RSLSR) |  | 68
45 | 5mer-322 (RRQSR) |  | 84
46 | 5mer-323 (KWYYR) |  | 77

Row | Substance | Binding affinity [1] [Ru] | Binding affinity (5mer Top sequence) [Ru]
47 | 5mer-324 (KSQRR) |  | 58
48 | 5mer-325 (KRIQR) |  | 50
49 | 5mer-326 (RRFTK) |  | 68
50 | 5mer-327 (RVLCR) |  | 86
51 | 5mer-328 (RWVLK) |  | 61
52 | 5mer-329 (RRFCR) |  | 79
53 | 5mer-330 (RWQLR) |  | 86
54 | 5mer-331 (RGIQR) |  | 79
55 | 5mer-332 (RRYCR) |  | 85
56 | 5mer-333 (RVLQR) |  | 67
57 | 5mer-334 (KRFYK) |  | 64
58 | 5mer-335 (KSLTR) |  | 56
59 | 5mer-336 (KSVSR) |  | 83
60 | 5mer-337 (KGRSR) |  | 67
61 | 5mer-338 (RWILR) |  | 61
62 | 5mer-339 (KWVRK) |  | 87
63 | 5mer-340 (KGYRR) |  | 51
64 | 5mer-341 (RWYRR) |  | 52
65 | 5mer-342 (KVYQR) |  | 69
66 | 5mer-343 (KSFSR) |  | 60
67 | 5mer-344 (KQFQR) |  | 52
68 | 5mer-345 (RQQRR) |  | 86
69 | 5mer-346 (KGISK) |  | 57

Row | Substance | Binding affinity [1] [Ru] | Binding affinity (5mer Top sequence) [Ru]
70 | 5mer-347 (KRICR) |  | 78
71 | 5mer-348 (KRQTK) |  | 80
72 | 5mer-349 (KQVYR) |  | 50
73 | 5mer-350 (KSYYK) |  | 59
74 | 5mer-351 (KSFSK) |  | 75
75 | 5mer-352 (RLVRK) |  | 76
76 | 5mer-353 (KSQLK) |  | 59
77 | 5mer-354 (RSQTR) |  | 64
78 | 5mer-355 (KLLYR) |  | 87
79 | 5mer-356 (KQVLR) |  | 65
80 | 5mer-357 (RGFRK) |  | 54
81 | 5mer-358 (KVRSK) |  | 50
82 | 5mer-359 (KRFQK) |  | 79
83 | 5mer-360 (RQLCK) |  | 66
84 | 5mer-361 (RSYQR) |  | 58
85 | 5mer-362 (KQRLK) |  | 62
86 | 5mer-363 (KRVRK) |  | 59
87 | 5mer-364 (RWITR) |  | 62
88 | 5mer-365 (KRRYK) |  | 52
89 | 5mer-366 (RQLQK) |  | 52
90 | 5mer-367 (RSVQK) |  | 71
91 | 5mer-368 (KRIRR) |  | 50
92 | 5mer-369 (RGFTR) |  | 84

Row | Substance | Binding affinity [1] [Ru] | Binding affinity (5mer Top sequence) [Ru]
93 | 5mer-370 (KWRRK) |  | 67
94 | 5mer-371 (RGISK) |  | 86
95 | 5mer-372 (RSVCR) |  | 54
96 | 5mer-373 (KVFTK) |  | 87
97 | 5mer-374 (KLFTR) |  | 75
98 | 5mer-375 (KQLCR) |  | 84
99 | 5mer-376 (KGQLR) |  | 65
100 | 5mer-377 (KGFYK) |  | 67
101 | 5mer-378 (RRLSK) |  | 65
102 | 5mer-379 (KSRLR) |  | 79
103 | 5mer-380 (KRYLK) |  | 82
104 | 5mer-381 (KGQRR) |  | 87
105 | 5mer-382 (RLRQR) |  | 62
106 | 5mer-383 (RWQRK) |  | 56
107 | 5mer-384 (KSLRK) |  | 75
108 | 5mer-385 (RGVYR) |  | 51
109 | 5mer-386 (RSFLK) |  | 78
110 | 5mer-387 (RRILR) |  | 52
111 | 5mer-388 (KLFCK) |  | 78
112 | 5mer-389 (KWRRR) |  | 57
113 | 5mer-390 (KRFCR) |  | 64
114 | 5mer-391 (KVFRR) |  | 72
115 | 5mer-392 (RSRLR) |  | 87

Row | Substance | Binding affinity [1] [Ru] | Binding affinity (5mer Top sequence) [Ru]
116 | 5mer-393 (KSLQR) |  | 75
117 | 5mer-394 (KRRRK) |  | 66
118 | 5mer-395 (RWVCK) |  | 50
119 | 5mer-396 (KVVCR) |  | 53
120 | 5mer-397 (RRITK) |  | 52
121 | 5mer-398 (KGQCR) |  | 71
122 | 5mer-399 (KWIQR) |  | 62
123 | 5mer-400 (RWRCK) |  | 70
124 | 5mer-401 (RGVLR) |  | 52
125 | 5mer-402 (RLRYR) |  | 86
126 | 5mer-403 (RRLYK) |  | 64
127 | 5mer-404 (KGYLK) |  | 83
128 | 5mer-405 (KSYTK) |  | 68
129 | 5mer-406 (KVYLR) |  | 84
130 | 5mer-407 (RQIYK) |  | 58
131 | 5mer-408 (KVFRK) |  | 74
132 | 5mer-409 (KQIYK) |  | 62
133 | 5mer-410 (RRFLR) |  | 76
134 | 5mer-411 (KGRLR) |  | 66
135 | 5mer-412 (RGRSR) |  | 81
136 | 5mer-413 (RWLTR) |  | 56
